This note sets out measurements from patent US20250109212A1 (BIOSION, published 2025).

Test [1] has as its target T1, recombinant human CD40-his protein (Cat #: CD0-H5228, Acro biosystems) (human, UniProt P25942 21-193).
T1 construct: Bought protein
Nature of the test: SPR (Biacore T200), sample on Protein A chip, antigen-his analyte, 1:1 fit. The source says:
(§1) The purified recombinant fusion proteins were characterized for their binding affinity and binding kinetics by Biacore T200 system (GE healthcare, Pittsburgh, PA, USA). The anti-CD40 antibody HuCD40-C1H1-V2 (having the heavy chain and the light chain of SEQ ID NOs: 19 and 20), Selicrelumab (an agonistic anti-CD40 antibody, Roche Inc., prepared in-house with heavy and light chains of SEQ ID NOs: 27 and 28), and SIRPα-Fc fusion proteins, including SIRPαV2D1M1-Fc (IgG2) (SEQ ID NO: 21, X1=I, X2=R, X3=T, X4=K, X5=F), SIRPαV2D1M2-Fc (IgG2) (SEQ ID NO: 21, X1=I, X2=R, X3=T, X4=R, X5=V), SIRPα-isoform2-Fc (SEQ ID NO: 25) were used as positive controls.
(§2) A Protein A chip (Cat #: 29-1275-56, GE healthcare) was used for affinity determination. The recombinant fusion proteins of the disclosure and the positive controls each at the concentration of 2 μg/ml were respectively flowed onto the chip at a flow rate of 10 μl/min. Then, serially diluted recombinant human CD40-his proteins (Cat #: CD0-H5228, Acro biosystems), human CD47-his proteins (Cat #: CD7-H5227, Acro biosystems), cynomolgus CD40-his proteins (Biosion in house made, SEQ ID NO: 29) or cynomolgus CD47-his proteins (Cat #: CD7-C52H1, Acro biosystems), 2-fold dilution in HBS-EP⁺ buffer (provided by Biacore) with a starting concentration of 200 nM, were flowed onto the chip at a flow rate of 30 μl/min. The association kinetics was followed for 2 minutes and the dissociation kinetics was followed for 10 minutes. The association and dissociation curves were fit to a 1:1 Langmuir binding model using the Biacore evaluation software.
(SPR reads the build-up and loss of mass on a sensor chip optically.)

In test [2] the target is T2, cynomolgus CD40-his protein (Biosion in house made) (cynomolgus, UniProt P25942 21-191 (human entry), limits assumed).
T2 construct: also called Cyno CD40-his
T2 chain: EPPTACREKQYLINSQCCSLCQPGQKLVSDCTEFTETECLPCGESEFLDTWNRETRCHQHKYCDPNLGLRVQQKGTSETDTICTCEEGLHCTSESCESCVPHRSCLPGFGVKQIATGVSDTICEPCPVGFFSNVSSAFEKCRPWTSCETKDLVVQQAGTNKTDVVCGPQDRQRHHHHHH
The test is described as above.
From the text: as §1, §2

Test [3] concerns the target T3, full length human CD40 (uniprot #P25942-1) on 293T-CD40 cells (human, UniProt P25942 21-277).
T3 construct: whole, on cells
The experiment in a line: FACS on 293T-CD40 cells, detection with goat anti-human IgG (Fab)-PE, MFI. On the procedure:
Following an incubation of 40 minutes at 4° C. in dark, cells were washed three times and resuspended in FACS buffer. Fluorescence was measured using a Becton Dickinson FACS Canto II-HTS equipment and plotted against the recombinant fusion protein or controls concentration. Data was analyzed using Graphpad Prism and EC₅₀ values were reported.

Test [4] deals with human CD40-Fc protein (prepared in-house) (human). Nature of the test: competitive ELISA: human CD40-Fc coated, blocked ligand biotin-labeled human CD40L-his, OD(450-630). On the procedure:
The ability of the recombinant fusion proteins of the disclosure to block CD40-CD40L binding was measured in a competitive ELISA assay. Briefly, 100 μl/well human CD40-Fc proteins (prepared in-house with amino acid sequence of SEQ ID NO: 22) were coated on 96-well micro plates at 2 μg/mL in coating buffer (carbonate/bicarbonate buffer) and incubated overnight at 4° C. The next day, the plates were washed once with wash buffer (PBS+0.05% v/v Tween-20, PBST), and then blocked with 5% w/v non-fatty milk in PBST for 2 hours at 37° C. The plates were then washed 4 times using the wash buffer.
Serially diluted recombinant fusion proteins of the disclosure or controls (starting at 10 µg/mL with a 5-fold serial dilution) in PBST with 2.5% w/v non-fatty milk were added to the CD40-Fc bound plates, 100 μl per well, and incubated at 37° C. for 40 minutes. The plates were washed 4 times using wash buffer, and then added and incubated for 40 minutes at 37° C. with 100 μl/well 95 ng/mL biotin-labeled human CD40L-his protein (Cat #: 10239-H08E, Sino biological). The plates were washed again using wash buffer, added with 100 μl/well streptavidin conjugated HRP (1:10000 dilution in PBST buffer, Cat #: 016-030-084, Jackson ImmunoResearch) and incubated for 40 minutes at 37° C. The plates were washed again using wash buffer. […] The absorbance was read on a microplate reader using the dual wavelength mode with 450 nm for TMB and 630 nm as the reference wavelength, then the OD (450-630) values were plotted against the recombinant fusion protein or controls concentration. Data was analyzed using Graphpad Prism and IC₅₀ values were reported.

For test [5], the target named is T4, human CD47-his protein (Cat #: CD7-H5227, Acro biosystems) (human, UniProt Q08722 19-139).
T4 construct: Bought protein
The experiment in a line: SPR (Biacore T200), sample on Protein A chip, antigen-his analyte, 1:1 fit.
From the text: as §1, §2

In test [6] the target is T5, cynomolgus CD47-his protein (Cat #: CD7-C52H1, Acro biosystems) (cynomolgus, UniProt A0A2K5X523 19-139).
T5 construct: Bought protein; also called Cyno CD47-his
Described as above.
From the text: as §1, §2

Test [7] addresses T6, biotin-labeled human CD47-Fc (Biosion in house made) (human, biotin-labeled (sites not given)).
T6 construct: also called Human CD47-Fc protein
Nature of the test: competitive ELISA: binder premixed with biotin-labeled human CD47-Fc, blocked partner coated human CD172a-Fc, OD(450-630). On the procedure: The ability of the recombinant fusion proteins of the disclosure to block CD47-CD172a binding was measured in a competitive ELISA assay. Briefly, 100 μl/well human CD172a-Fc proteins (prepared in-house with amino acid sequence of SEQ ID NO: 24) were coated on 96-well micro plates at 2 μg/mL in coating buffer (carbonate/bicarbonate buffer) and incubated overnight at 4° C. The next day, the plates were washed once with wash buffer (PBS+0.05% v/v Tween-20, PBST), and then blocked with 5% w/v non-fatty milk in PBST for 2 hours at 37° C. The plates were then washed 4 times using wash buffer.
Serially diluted recombinant fusion proteins of the disclosure or controls (starting at 100 nM with a 5-fold serial dilution) were mixed with 20 ng/ml biotin-labeled human CD47-Fc (Biosion in house made, SEQ ID NO: 23) in PBST with 2.5% w/v non-fatty milk. The mixtures were incubated at 37° C. for 40 minutes, and respectively added to the CD172a-Fc bound plates, 100 μl per well. The plates were incubated at 37° C. for 40 minutes, washed 4 times using wash buffer, added with 100 μl/well streptavidin conjugated HRP (1:10000 dilution in PBST buffer, Cat #: 016-030-084, Jackson ImmunoResearch), incubated for 40 minutes at 37° C., and washed again using wash buffer. […] The plates were read on a microplate reader using the dual wavelength mode with 450 nm for TMB and 630 nm as the reference wavelength, and the OD (450-630) values were plotted against the recombinant fusion protein or controls concentration. Data was analyzed using Graphpad Prism and IC₅₀ values were reported. Wild-type SIRPαV2D1-Fc (IgG2) (SEQ ID NO: 21, X1=V, X2=K, X3=S, X4=K, X5=F) was used as a positive control.
A general note: An ELISA detects its analyte on a solid surface through an enzyme-linked reagent.

The Kd is the equilibrium constant for the complex coming apart. By koff is commonly meant the rate constant with which the complex falls apart. A word on the kon: it is the second-order rate constant of association. A word on the EC50: it is the concentration giving half of the maximal effect. One may read the IC50 as the point on the concentration scale where inhibition reaches its midpoint.

B1: Selicrelumab (antibody, human IgG2, kappa, V domains shown)
VH: not shown
VL: DIQMTQSPSSVSASVGDRVTITCRASQGIYSWLAWYQQKPGKAPNLLIYTASTLQSGVPSRFSGSGSGTDFTLTISSLQPEDFATYYCQQANIFPLTFGGGTKVEIKR
notes: Agonistic anti-CD40 antibody, prepared in-house
With B1, in test [1], the dissociation constant (Kd) worked out at 6.41 nM, the off-rate constant (koff) amounted to 0.00231 s⁻¹ and the on-rate constant (kon) was 360000 M⁻¹ s⁻¹. In test [2], this molecule displayed a Kd of 16.8 nM, a koff of 0.00219 s⁻¹ and a kon of 131000 M⁻¹ s⁻¹. In test [3], this molecule gave an EC50 of 2.28 nM. The same molecule yielded a 50% inhibitory concentration (IC50) in test [4] of 3.33 nM.

B2: BSI038×S-003 (bispecific antibody, human IgG2, kappa)
heavy: EVQLVESGGGLVKPGGSLRLSCAASGFTFSNYGISWVRQAPGKGLEWVSSISSGGDNTYYPDNVKGRFTISRDNAKNSLYLQMNSLRAEDTAVYYCARAGEKAMDYWGQGTLVTVSSASTKGPSVFPLAPCSRSTSESTAALGCLVKDYFPEPVTVSWNSGALTSGVHTFPAVLQSSGLYSLSSVVTVPSSNFGTQTYTCNVDHKPSNTKVDKTVERKCCVECPPCPAPPVAGPSVFLFPPKPKDTLMISRTPEVTCVVVDVSHEDPEVQFNWYVDGVEVHNAKTKPREEQFNSTFRVVSVLTVVHQDWLNGKEYKCKVSNKGLPAPIEKTISKTKGQPREPQVYTLPPSREEMTKNQVSLTCLVKGFYPSDIAVEWESNGQPENNYKTTPPMLDSDGSFFLYSKLTVDKSRWQQGNVFSCSVMHEALHNHYTQKSLSLSPGK
light: not shown
notes: Wild-type SIRPαV2D1 linked to C-terminus of each light chain of HuCD40-C1H1-V2 (human IgG2)
In the case of B2, in test [1], the Kd came out at 0.71 nM, the koff was determined as 0.00183 s⁻¹ and the association rate constant (kon) was determined as 2.57e+06 M⁻¹ s⁻¹. The molecule further gave an EC50 in test [3] of 1.54 nM. Also, the IC50 in test [4] came out at 2.93 nM.

B3: SIRPαV2D1M1-Fc (IgG2) (Fc fusion)
chain: EEELQVIQPDKSVSVAAGESAILHCTITSLIPVGPIQWFRGAGPARELIYNQREGHFPRVTTVSETTKRENMDFSISISNITPADAGTYYCVKFRKGSPDTEFKSGAGTELSVRAKPSAPVVSGPAARATPGGGGSGGGGSERKCCVECPPCPAPPVAGPSVFLFPPKPKDTLMISRTPEVTCVVVDVSHEDPEVQFNWYVDGVEVHNAKTKPREEQFNSTFRVVSVLTVVHQDWLNGKEYKCKVSNKGLPAPIEKTISKTKGQPREPQVYTLPPSREEMTKNQVSLTCLVKGFYPSDIAVEWESNGQPENNYKTTPPMLDSDGSFFLYSKLTVDKSRWQQGNVFSCSVMHEALHNHYTQKSLSLSPGK
notes: also called SIRPαV2M1-Fc(IgG2)
Take B3: in test [5], the Kd stood at 0.952 nM, the koff was determined as 0.000401 s⁻¹ and the kon was 421000 M⁻¹ s⁻¹. For the same molecule, in test [6], binding was put at a Kd of 4.88 nM, the koff is 0.000371 s⁻¹ and the kon was 76000 M⁻¹ s⁻¹. For the same molecule, in test [7], the IC50 was 8.87 nM.

B4: SIRPαV2D1M2-Fc (IgG2) (Fc fusion)
chain: EEELQVIQPDKSVSVAAGESAILHCTITSLIPVGPIQWFRGAGPARELIYNQREGHFPRVTTVSETTRRENMDFSISISNITPADAGTYYCVKFRKGSPDTEVKSGAGTELSVRAKPSAPVVSGPAARATPGGGGSGGGGSERKCCVECPPCPAPPVAGPSVFLFPPKPKDTLMISRTPEVTCVVVDVSHEDPEVQFNWYVDGVEVHNAKTKPREEQFNSTFRVVSVLTVVHQDWLNGKEYKCKVSNKGLPAPIEKTISKTKGQPREPQVYTLPPSREEMTKNQVSLTCLVKGFYPSDIAVEWESNGQPENNYKTTPPMLDSDGSFFLYSKLTVDKSRWQQGNVFSCSVMHEALHNHYTQKSLSLSPGK
notes: also called SIRPαV2M2-Fc(IgG2)
In test [5], B4 came in with a Kd of 1.07 nM, a koff of 0.000417 s⁻¹ and a kon of 388000 M⁻¹ s⁻¹. In test [6], this molecule came in with a dissociation constant Kd of 7.01 nM, a koff of 0.000438 s⁻¹ and an association rate constant (kon) of 62400 M⁻¹ s⁻¹. In test [7], this molecule showed an IC50 of 11.8 nM.

B5: BSI038×S-001 (bispecific antibody, human IgG2, kappa)
heavy: not shown
light: EIVLTQSPATLSLSPGERATLSCRASQTINNNLHWYQQKPGQAPRLLIKYASQSISGIPARFSGSGSGTDFTLTISSLEPEDFAVYFCQQFSSWPLTFGGGTKVEIKRTVAAPSVFIFPPSDEQLKSGTASVVCLLNNFYPREAKVQWKVDNALQSGNSQESVTEQDSKDSTYSLSSTLTLSKADYEKHKVYACEVTHQGLSSPVTKSFNRGEC
notes: Wild-type SIRPαV2D1 linked to C-terminus of each heavy chain of HuCD40-C1H1-V2 (human IgG2)
As for B5, in test [1], the equilibrium dissociation constant (Kd) is 0.771 nM, the koff was 0.00188 s⁻¹ and the on-rate constant (kon) came out at 2.44e+06 M⁻¹ s⁻¹. For the same molecule, the EC50 in test [3] was 1.45 nM. Besides, in test [4], the IC50 was around 2.21 nM.
